Reference: patent publication US20070265350A1 (UNIVERSITY OF IOWA RESEARCH FOUNDATION, published 2007)

Molecular target: T1, His-Cdc42 (UniProt P60953 1-191, limits assumed)
T1 construct: Bought protein; also called His-tagged Cdc42; Cdc42-GTPγS; not shown: His tag
Assay: in vitro pull-down of immobilized His-Cdc42 (nucleotide analogs as indicated) with purified bovine SOD1, Western blot (FIG. 1B)
Method: Pull-down assays with GST- and His-tagged proteins. Dynabeads talon for histidine tagged proteins were washed with potassium phosphate buffer (PPHB) containing 100 mM KH₂PO₄, 10 mM NaCl, 0.25 mM MgCl₂ and 100 nM CaCl₂. […] The GTPases were either used directly or preloaded with either GTPγS or GDPβS and then washed. […] Samples were incubated at room temperature (RT) for 30 minutes with intermittent gentle agitation. […] The fourth wash was carried out in 50 mM Tris pH 6.8. Proteins were eluted using 20 μl 125 mM imidazole and samples were then mixed with SDS-PAGE reducing loading buffer and separated by SDS-PAGE for Western blotting.

T1 sequence (P60953 whole entry): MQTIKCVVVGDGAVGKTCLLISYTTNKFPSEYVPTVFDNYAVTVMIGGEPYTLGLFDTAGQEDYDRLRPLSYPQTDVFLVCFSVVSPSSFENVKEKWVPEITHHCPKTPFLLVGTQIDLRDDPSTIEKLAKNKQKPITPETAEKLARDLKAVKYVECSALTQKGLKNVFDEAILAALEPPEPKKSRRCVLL

B1: Bovine copper/zinc superoxide dismutase (SOD1), native (enzyme)
chain: not shown
notes: Native, metalated enzyme as bought; also called bovine SOD1; Bov.SOD1
  binding result: no binding
